Test results published in patent US11306156.
Values belong to the substance of their own block, whether it stands above or below them.

Key:
[1] = molecular target: D3H44 Fab heavy chain S186K, ABD2-His6 tagged; assay: LCCA, SPR of light chain tags; L1:L2 DNA 1:3 normalized to 1:1; competing light chain m16
[2] = molecular target: D3H44 Fab heavy chain L143E_K145T_Q179E, ABD2-His6 tagged; assay: as above
[3] = molecular target: D3H44 Fab heavy chain S186K, ABD2-His6 tagged; assay: LCCA, SPR of light chain tags; L1:L2 DNA 1:9 normalized to 1:1; competing light chain m16
[4] = molecular target: D3H44 Fab heavy chain L143E_K145T_Q179E, ABD2-His6 tagged; assay: as above
[5] = molecular target: tissue factor (TF) antigen (UniProt P13726); assay: SPR, His-captured Fab, TF as analyte, 1:1 fit; batch C (+)
[6] = molecular target: tissue factor (TF) antigen (UniProt P13726); assay: SPR, His-captured Fab, TF as analyte; against wild-type D3H44 Fab; batch C (+)
[7] = molecular target: D3H44 Fab heavy chain Q179R, ABD2-His6 tagged; assay: LCCA, SPR of light chain tags; L1:L2 DNA 1:3 normalized to 1:1; competing light chain m16
[8] = molecular target: D3H44 Fab heavy chain Q179R, ABD2-His6 tagged; assay: LCCA, SPR of light chain tags; L1:L2 DNA 1:9 normalized to 1:1; competing light chain m16
[9] = molecular target: tissue factor (TF) antigen (UniProt P13726); assay: SPR (ProteOn XPR36), Fab captured on anti-penta-His surface, TF injected as analyte, 1:1 fit; batch C (marked +); reference wild-type D3H44 Fab
[10] = molecular target: tissue factor (TF) antigen (UniProt P13726); assay: SPR (ProteOn XPR36), Fab captured on anti-penta-His surface, TF injected as analyte, 1:1 fit; batch C (marked +)
[11] = molecular target: D3H44 light chain Q124E_V133G_S176D_T178D_T180E; assay: LCCA (co-expression, SPR tag read-out), L1:L2 DNA 1:3 normalised to 1:1; competing light chain m7
[12] = molecular target: D3H44 light chain Q124E_V133G_S176D_T178D_T180E; assay: LCCA (co-expression, SPR tag read-out), L1:L2 DNA 1:3 normalised to 1:1; competing light chain m8
[13] = molecular target: D3H44 light chain V133G_S176D_T178D_T180E; assay: LCCA (co-expression, SPR tag read-out), L1:L2 DNA 1:3 normalised to 1:1; competing light chain m7
[14] = molecular target: D3H44 light chain Q124E_V133G_S176D_T178E_T180E; assay: as above
[15] = molecular target: D3H44 light chain Q124R_T178R with N-terminal HA or FLAG tag; assay: LCCA (SPR tag readout), L1:L2 DNA 1:9, normalized to 1:1; competing light chain m11
[16] = molecular target: D3H44 light chain T178R with N-terminal HA or FLAG tag; assay: LCCA (SPR tag readout), L1:L2 DNA 1:3, normalized to 1:1; competing light chain m13
[17] = molecular target: D3H44 light chain Q124R_Q160K_T178R with N-terminal HA or FLAG tag; assay: as above
[18] = molecular target: D3H44 light chain Q124R_T178R with N-terminal HA or FLAG tag; assay: as above
[19] = molecular target: D3H44 light chain Q124K_T178R with N-terminal HA or FLAG tag; assay: as above
[20] = molecular target: D3H44 light chain Q124R_T178R with N-terminal HA or FLAG tag; assay: LCCA (SPR tag readout), L1:L2 DNA 1:3, normalized to 1:1; competing light chain m10
[21] = molecular target: D3H44 light chain Q124E_T180E with N-terminal HA or FLAG tag; assay: LCCA (SPR tag readout), L1:L2 DNA 1:3, normalized to 1:1; competing light chain m12
[22] = molecular target: D3H44 light chain Q124E_T178E_T180E with N-terminal HA or FLAG tag; assay: LCCA (SPR tag readout), L1:L2 DNA 1:9, normalized to 1:1; competing light chain m9
[23] = molecular target: D3H44 light chain Q124E_T178E with N-terminal HA or FLAG tag; assay: as above
[24] = molecular target: D3H44 light chain Q124E_T180E with N-terminal HA or FLAG tag; assay: LCCA (SPR tag readout), L1:L2 DNA 1:3, normalized to 1:1; competing light chain m19
[25] = molecular target: D3H44 light chain Q124R_T178R with N-terminal HA or FLAG tag; assay: LCCA (SPR tag readout), L1:L2 DNA 1:3, normalized to 1:1; competing light chain m11
[26] = molecular target: D3H44 light chain Q124E_T180E with N-terminal HA or FLAG tag; assay: LCCA (SPR tag readout), L1:L2 DNA 1:3, normalized to 1:1; competing light chain m9
[27] = molecular target: D3H44 light chain Q124E_T178E_T180E with N-terminal HA or FLAG tag; assay: as above
[28] = molecular target: D3H44 light chain Q124E_T178E with N-terminal HA or FLAG tag; assay: as above
[29] = molecular target: D3H44 light chain Q124E_T180E with N-terminal HA or FLAG tag; assay: LCCA (SPR tag readout), L1:L2 DNA 1:3, normalized to 1:1; competing light chain m14
[30] = molecular target: D3H44 light chain Q124R_T178R with N-terminal HA or FLAG tag; assay: LCCA (SPR tag readout), L1:L2 DNA 1:9, normalized to 1:1; competing light chain m10
[31] = molecular target: D3H44 light chain Q124E_V133G_S176D_T178E_T180E; assay: LCCA (co-expression, SPR tag read-out), L1:L2 DNA 1:3 normalised to 1:1; competing light chain m8
[32] = molecular target: tissue factor (TF) antigen (UniProt P13726); assay: SPR; log change of median KD against wild-type D3H44 Fab; batch C (+)
[33] = molecular target: tissue factor (TF) antigen (UniProt P13726); assay: SPR, Fab captured by anti-penta-His, TF injected, 1:1 fit; batch C (+)

Substance: D3H44 Fab heterodimer H1L1 of LCCA Set # 9813 (H1 Q39E_K145T_H172R_Q179E; L1 Q38R_S131K)
Kd [5]: 0.18 nM
Change in median values of KD compared to wild type (-(log(KD design)-log(KD wt))) [6]: -0.05 log

Substance: D3H44 Fab heterodimer H1L1 of LCCA Set # 9885 and 9886 (H1 S186R; L1 Q124E_S176L_T180E)
Kd [5]: 0.18 nM
Change in median values of KD compared to wild type (-(log(KD design)-log(KD wt))) [6]: -0.06 log

Substance: D3H44 Fab heterodimer H1L1 of LCCA Set # 9848 and 9847 (H1 S186K; L1 Q124E_S176L_T180E)
Kd [5]: 0.15 nM
Change in median values of KD compared to wild type (-(log(KD design)-log(KD wt))) [6]: 0.03 log

Substance: D3H44 H1L1 Fab heterodimer, H1 Q39R_D146G_H172R_Q179K, L1 Q38E_Q124E_Q160E_T180E
Change in median KD of h1l1 Fab heterodimer compared to wild type (-(log(KD design)-log(KD wt))) (log(KD) difference) [9]: 0.38
Kd [10]: 0.07 nM

Substance: D3H44 H1L1 Fab heterodimer, H1 Q39E_L143E_K145T_Q179E, L1 Q38R_Q124R_Q160K_T178R
Change in median KD of h1l1 Fab heterodimer compared to wild type (-(log(KD design)-log(KD wt))) (log(KD) difference) [9]: -0.1
Kd [10]: 0.2 nM

Substance: H1L1 Fab heterodimer of LCCA sets 9858, 9853, 9855, 9862, 9863 and 9860 (D3H44 Fab, H1 S186K, L1 Q124E_T180E)
Change in median values of KD of h1l1 Fab heterodimer compared to wild type (-(log(KD design)-log(KD wt))) [32]: 0.46 log units
Kd [33]: 0.06 nM

Substance: H1L1 Fab heterodimer of LCCA sets 9812 and 9811 (D3H44 Fab, H1 Q179R, L1 Q124E_T178E_T180E)
Change in median values of KD of h1l1 Fab heterodimer compared to wild type (-(log(KD design)-log(KD wt))) [32]: -0.01 log units
Kd [33]: 0.16 nM

Next, values leading:

H2L2:H2L1 normalized median ratio [1]: 94%
H1L1:H1L2 normalized median ratio [2]: 9%
H2L2:H2L1 normalized median ratio [3]: 94%
H1L1:H1L2 normalized median ratio [4]: 22%
Substance: D3H44 light chain Q124E_Q160E_T180E, HA or FLAG tagged

H2L2:H2L1 normalized median ratio [7]: 94%
H2L2:H2L1 normalized median ratio [1]: 95%
H1L1:H1L2 normalized median ratio [2]: 8%
H2L2:H2L1 normalized median ratio [8]: 90%
H2L2:H2L1 normalized median ratio [3]: 89%
H1L1:H1L2 normalized median ratio [4]: 8%
Substance: D3H44 light chain Q124E_T178E_T180E, HA or FLAG tagged

Change in median KD of h1l1 Fab heterodimer compared to wild type (-(log(KD design)-log(KD wt))) (log(KD) difference) [9]: -0.18
Kd [10]: 0.24 nM
Substance: D3H44 H1L1 Fab heterodimer, H1 Q39R_H172R_Q179K, L1 Q38E_Q124E_Q160E_T180E

H2L2:H2L1 normalized median ratio [11]: 92 parts of 100
H2L2:H2L1 normalized median ratio [12]: 95 parts of 100
Substance: D3H44 Fab heavy chain L124R_S186R

H1L1:H1L2 normalized median ratio [13]: 6 parts of 100
H1L1:H1L2 normalized median ratio [14]: 6 parts of 100
Substance: D3H44 Fab heavy chain L124E_K145M_Q179E

H2L2:H2L1 normalized median ratio [15]: 18%
H2L2:H2L1 normalized median ratio [16]: 4%
H2L2:H2L1 normalized median ratio [17]: 2%
H2L2:H2L1 normalized median ratio [18]: 4%
H2L2:H2L1 normalized median ratio [19]: 3%
H2L2:H2L1 normalized median ratio [20]: 7%
H2L2:H2L1 normalized median ratio [21]: 97%
H2L2:H2L1 normalized median ratio [22]: 82%
H2L2:H2L1 normalized median ratio [23]: 82%
H2L2:H2L1 normalized median ratio [24]: 96%
H2L2:H2L1 normalized median ratio [25]: 4%
H2L2:H2L1 normalized median ratio [26]: 96%
H2L2:H2L1 normalized median ratio [27]: 93%
H2L2:H2L1 normalized median ratio [28]: 96%
H2L2:H2L1 normalized median ratio [29]: 98%
H2L2:H2L1 normalized median ratio [30]: 18%
Substance: D3H44 Fab heavy chain S186R with C-terminal ABD2-His6 tag

H2L2:H2L1 normalized median ratio [14]: 90 parts of 100
H2L2:H2L1 normalized median ratio [31]: 89 parts of 100
Substance: D3H44 Fab heavy chain L124R_D146N_Q179K

Change in median values of KD of h1l1 Fab heterodimer compared to wild type (-(log(KD design)-log(KD wt))) [32]: 0.36 log units
Kd [33]: 0.07 nM
Substance: H1L1 Fab heterodimer of LCCA sets 9898, 9893, 9891 and 9896 (D3H44 Fab, H1 S186R, L1 Q124E_T180E)
